Measured values: patent US20090239794A1, “HCV F PROTEIN AND USES THEREOF” (priority 2004, published 2009)

Target: T1, HLA-A*0201 (Homo sapiens, UniProt P04439, D140Y/D185E/D98H/E176V/E277Q/G131W/G231S/I119V/I121R/I166T/I218V/L300P/L318F/N151K/N90K/P208A/P217A/Q86G/Q94H/R138H/R169H/T345S)
T1 construct: rescue cell-surface expression of CMH-I molecule HLA-A2 in the TAP peptide transporter-deficient cell line T2; endogenous in cells; host or cells: T2 cells (TAP-deficient)
Assay: T2 peptide binding assay
Format: cell-based
Conditions: for dose-response of MHC class I (HLA-A2) expression at the surface of T2 cells: 30, 100, 200 μg/ml; for A2 binding / Peak fluorescence, % of the levels obtained with NS3 1406-1415 / initial screening of the overlapping peptide panel for HLA-A*0201 expression at the cell surface: T2 cells; for A2 binding: dose-dependent increase of HLA-A2 surface expression; for Peak fluorescence, % of the levels obtained with NS3 1406-1415: MHC class I staining with W6/32; for initial screening of the overlapping peptide panel for HLA-A*0201 expression at the cell surface: 200 μg/ml
Procedure: 37 overlapping peptides (15 amino acid residues with […]) derived from F protein and 5 additional 15-mer peptides corresponding to alternative N-terminal frameshift products of the core protein sequence were synthesized using Fmoc chemistry (SynPep, Dublin, Calif.) based on the sequence of HCV-1a F protein (GenBank accession n° M62321), and were resolubilized in 25% w/v dimethyl sulfoxyde (DMSO) in 1×HBSS. Peptides were diluted to 30, 100, and 200 μg/ml final concentration in DMEM supplemented with 3% w/v FBS, and were incubated with 100,000 serum-depleted (3% FBS for 24 h) T2 cells for 16 h at 37° C. in 5% CO2. T2 cells were then stained (30 min at room temperature) for MHC class I molecules using fluorescein isothiocyanate (FITC)-conjugated W6/32 monoclonal antibody (Sigma, Saint Louis, Mo.) and were analyzed on a FACSCalibur™ flow cytometer (Becton-Dickinson Immunocytometry Systems, La Jolla, Calif.) with live gating based on forward and side scatter.
Interaction of antigenic peptides with class I major histocompatibility complex (MHC) molecules is a prerequisite for their recognition by host cytotoxic T lymphocytes (CTL). The T2 binding assay was therefore performed, in which exogenously-supplied peptides are assessed for their ability to rescue cell-surface expression of CMH-I molecule HLA-A2 in the TAP peptide transporter-deficient cell line T2 [25].
Forty-two overlapping 15-mer peptides corresponding to HCV-1a F protein sequence were tested for interaction with HLA-A*0201 molecules using the T2 peptide binding assay. Specifically, thirty-seven overlapping peptides (15 amino acid residues with 11 residues overlaps) derived from F protein and 5 additional 15-mer peptides corresponding to alternative N-terminal frameshift products of the core protein sequence were synthesized using Fmoc chemistry based on the sequence of HCV-1a ARFP (GenBank accession n° M62321), and peptide binding was assessed as described in Example 1. […] Mean fluorescence intensity following class I MHC staining by the W6/32 monoclonal antibody was used as the readout. The threshold level was set using no peptide controls (hatched lines in FIGS. 4 and 5).

Row | Sequence | dose-response of MHC class I (HLA-A2) expression at the surface of T2 cells | A2 binding | Peak fluorescence, % of the levels obtained with NS3 1406-1415 [%] | initial screening of the overlapping peptide panel for HLA-A*0201 expression at the cell surface
1 | ALGLAGAPQT (Hepatitis C virus) [F103-112] | unable to rescue HLA-A2 expression | – | – | –
2 | KLVALGINAV [NS3 1406, reference compound] | – | + | – | –
3 | PVALGLAGAPQTPGV (Hepatitis C virus) [F101-115] | dose-dependent increase | + | 83.2 | high binders
4 | SLVEFTCCRA (Hepatitis C virus) [F31-40] | dose-dependent increase | + | – | –
5 | CCRAGALDWVCARRE (Hepatitis C virus) [F37-51] | dose-dependent increase | + | 79.2 | high binders
6 | VRSLVEFTCCRAGAL (Hepatitis C virus) [F29-43, 15-mer of HCV-1a F protein] | dose-dependent increase | + | 87.6 | high binders
7 | AGAPQTPGV (Hepatitis C virus) [F107-115] | dose-dependent capacity to rescue A2 expression | + | – | –
